Reference: PMC5648036

Test system: SerRS-Avi-biotin (human cytosolic seryl-tRNA synthetase) (Homo sapiens)
Assay: SPR

## WT tRNASer
  Kd: 3.3 nM
